# Measurements from paper PMC3879539, “Control of KirBac3.1 Potassium Channel Gating at the Interface between Cytoplasmic Domains*” (The Journal of Biological Chemistry, 2013).
# B1: KirBac3.1 S129R/S205L (natural protein, Magnetospirillum magnetotacticum)
# chain: MTGGMKPPARKPRILNSDGSSNITRLGLEKRGWLDDHYHDLLTVSWPVFITLITGLYLVTNALFALAYLACGDVIENARPGSFTDAFFFSVQTMATIGYGKLIPIGPLANTLVTLEALCGMLGLAVAARLIYARFTRPTAGVLFSSRMVISDFEGKPTLMMRLANLRIEQIIEADVHLVLVRSEISQEGMVFRRFHDLTLTRSRLPIFSLSWTVMHPIDHHSPIYGETDETLRNSHSEFLVLFTGHHEAFAQNVHARHAYSCDEIIWGGHFVDVFTTLPDGRRALDLGKFHEIAQ
# notes: KirBac3.1, inwardly rectifying potassium (Kir) channel homolog from Magnetospirillum magnetotacticum; the final model contains 283 of 301 residues; The tetramer arises from crystallographic symmetry (one molecule in the asymmetric unit, space group P4212); also called S129R/S205L double mutant; S129R/S205L mutant channel; source: size exclusion column, detergent exchanged to HEGA-10
# Target: the molecule itself
# Assay: crystal structure; purified channel in 14 mM HEGA-10, 6 mg/ml; crystallised in 10% glycerol, 90 mM HEPES pH 7, 20% PEG-400, 5% PEG-4000, 2.5% PEG-8000, 10 mM spermidine, 20 °C; space group P4212, one molecule in the asymmetric unit; 2.46 Å
protein,measurement,value
B1,binding result,binds
